Where “and” joins values, the source holds several entries; their conditions need not be identical. Equal entries are not always repeated.

Series [1] is described as follows: NDM in dilutions of mixed human chyme with and without protease inhibitors (SDS-PAGE, CENTA). It counts as in vitro ADME. The note with it: 30 minutes. As for the experimental part: NDM activity was lost immediately upon incubation in the mixed human chyme (FIG. 24). To determine if the loss in activity was due to digestion by proteases present in the human chyme, purified NDM (100 ug/ml) was incubated for 30 minutes with dilutions of human mixed chyme ranging from 100% to 0% chyme in the absence or presence of a serine protease inhibitor cocktail (SigmaFAST protease inhibitors cocktail without EDTA (Sigma-Aldrich catalog number S8830). All incubations were performed in the presence of 100 μM ZnSO4 (final concentration). Samples removed at 30 minutes were transferred to lamelli sample buffer containing beta mercaptoethanol for analysis of protein degradation by gel electrophoreses and staining with coomassie blue. The remaining samples were snap frozen and used for evaluation of beta lactamase activity using a CENTA substrate (FIG. 25). […] In addition, most of the activity of NDM was retained at chyme dilutions of 3.13% or less (FIG. 25, panel A). In the presence of protease inhibitors, the majority of the NDM activity was retained at chyme dilutions of 50% or less.

Series [2] is described as follows: P2A enteric-coated pellets and intravenous cefotaxime in jejunal-fistulated dogs. Format: in vivo, laboratory beagles. The conditions noted are these: enteric-coated pellets, 0.5 mg/kg or 0.25 mg/kg P2A, intravenous cefotaxime 120 mg/kg. As for the experimental part:
An enteric-coated pellet formulation of P2A was produced using methods similar to that used successfully for the production of the P1A enteric-coated pellets (e.g. sucrose core particles, pH-dependent polymer Eudragit L 30 D-55 coating, see Tarkkanen, Antimicrobial Agents and Chemotherapy, June 2009, p. 2455-2462, the entire contents of which are hereby incorporated by reference).
The ability of P2A to degrade cefotaxime in the dog intestinal tract was evaluated using laboratory beagles that had permanent jejunal fistulas. The fistulas allowed the repeated collection of jejunal chyme specimens from these animals. Dogs were treated with peroral P2A enteric-coated pellets at two doses, 0.5 mg/kg or 0.25 mg/kg of P2A content and/or intravenous cefotaxime (120 mg/kg). The dosing was performed twice. Animals were fed 20 minutes before P2A was delivered orally. Each animal received 3-5 P2A capsules, dependent on the P2A dose and the body weight. Cefotaxime was delivered intravenously 10 minutes after P2A administration. […] Cefotaxime levels in chyme were measured using a plate diffusion method using cefotaxime susceptible Micrococcus luteus TS504 as the test strain. P2A activity levels in chyme were determined spectrophotometrically using meropenem as a substrate. Meropenem hydrolysis was monitored at a wavelength of 297 nm.

The nature of series [3]: Oral P2A and intravenous ceftriaxone in jejunal-fistulated dogs. Format: in vivo, laboratory beagles. The conditions noted are these: peroral P2A 2.5 mg/kg, intravenous ceftriaxone 30 mg/kg, omeprazole. As for the experimental part:
The ability of P2A to degrade ceftriaxone in the dog intestinal tract was evaluated using laboratory beagles that had permanent jejunal fistulas. The fistulas allowed the repeated collection of jejunal chyme specimens from these animals. Dogs were treated with peroral P2A (2.5 mg/kg) in a liquid formulation (PBS buffer), and/or intravenous ceftriaxone (30 mg/kg). A single dose of omeprazole (10 mg) was delivered orally to each dog prior to treatment with ceftriaxone and/or P2A to inhibit the HCl activity in the stomach to potentially reduce P2A degradation. Serum samples were collected and serum ceftriaxone levels quantified. Jejunal chyme samples were collected and ceftriaxone and P2A levels were quantified. Ceftriaxone levels in serum and chyme were measured using a plate diffusion method using ceftriaxone susceptible Micrococcus luteus TS504 as the test strain. P2A activity levels in chyme were determined spectrophotometrically using meropenem as a substrate. Meropenem hydrolysis was monitored at a wavelength of 297 nm.

Series [4] can be described thus: Oral P2A and intravenous ampicillin in jejunal-fistulated dogs. It counts as in vivo, laboratory beagles. The conditions noted are these: peroral P2A 1 mg/kg liquid formulation, intravenous ampicillin 40 mg/kg. As for the experimental part: The ability of P2A to degrade ampicillin in the dog intestinal tract was evaluated using laboratory beagles that had permanent jejunal fistulas. The fistulas allowed the repeated collection of jejunal chyme specimens from these animals. Dogs were treated with peroral P2A (1 mg/kg) in a liquid formulation (PBS buffer), and/or intravenous ampicillin (40 mg/kg). Serum samples were collected and serum ampicillin levels quantified. Jejunal chyme samples were collected and ampicillin and P2A levels were quantified. Ampicillin levels in serum and chyme were measured using a standard reverse phase HPLC method. P2A activity levels in chyme were determined spectrophotometrically using meropenem as a substrate. Meropenem hydrolysis was monitored at a wavelength of 297 nm.

Series [5] in a line: P2A concentration estimate and specific activity in cell lysates (CENTA assay, P2A protein standard). The note with it: BLR (DE3) P2A Clone 1 lysate, replicates 1 and 2. It counts as biochemical. The procedure:
To achieve an estimate of the amount of P2A protein in each of the lysates, dilutions of the lysates (5 ul, 2.5 ul, 1.3 ul, and 0.63 ul) were evaluated on SDS/PAGE compared to dilutions of a purified P2A standard protein (2.0 ug, 1.0 ug, 0.5 ug, 0.25 ug, 0.13 ug). Based on the P2A protein band intensities, an estimate of the amount of P2A protein in each of the lysates was obtained. The biological activity of the P2A protein in the cell lysates under the different lysing conditions was evaluated using the CENTA chromogenic assay compared to the biological activity of the P2A protein standard. The biological activity was normalized based on the P2A protein concentration estimate and an estimated P2A specific activity was obtained. […] The P2A expression cassette without the leader will be used for future studies.
Based on the P2A protein band intensities, an estimate of the amount of P2A protein in each of the lysates was obtained. The biological activity of the P2A protein in these cell lysates was evaluated using the CENTA chromogenic assay compared to the biological activity of the P2A protein standard. The biological activity was normalized based on the P2A protein concentration estimate and an estimated P2A specific activity was obtained.

Series [6] can be described thus: P2A stability in human chyme (CENTA). It counts as in vitro ADME. As for the experimental part: The stability of purified P2A when incubated in human chyme at 37° C. was evaluated by assessing aliquots withdrawn from incubated samples at 0, 0.5, 1, 2, 3, 4, 5, and 6 hours for beta-lactamase activity using a CENTA beta-lactamase substrate. Five different chyme specimens were used for evaluation of stability. The mixed chyme sample contained equal volumes of each of the five chime specimens mixed together. Chyme samples were characterized for pH, liquid content, and protease activity (Table 20).

B1: NDM: New Delhi metallo-β-lactamase NDM-1; NDM-68 = product of strain STY-NP1602-68 (STII Δ35, N-terminal GQQMETG) (protein)
chain: GQQMETGDQRFGDLVFRQLAPNVWQHTSYLDMPGFGAVASNGLIVRDGGRVLVVDTAWTDDQTAQILNWIKQEINLPVALAVVTHAHQDKMGGMDALHAAGIATYANALSNQLAPQEGMVAAQHSLTFAANGWVEPATAPNFGPLKVFYPGPGHTSDNITVGIDGTDIAFGGCLIKDSKAKSLGNLGDADTEHYAASARAFGAAFPKASMIVMSHSAPDSRAAITHTARMADKLR
As to B1, the “chyme dilution at which the majority of the activity was retained” value in series [1] (in the presence of protease inhibitors) is listed as at most 50%. Also, the “chyme dilution at which most of the activity was retained” value in series [1] (without protease inhibitors) is at most 3.13%. Further, in series [1] (without protease inhibitors, SDS-PAGE), the “chyme dilution at which intact protein could be detected” value was at most 6.25%.

B2: P2A: broad spectrum carbapenemase, class B metallo-enzyme requiring zinc, SEQ ID NO: 37; P2A-21 = product of strain SYT-PP0602-21 (protein)
chain: ETGTISISQLNKNVWVHTELGYFNGEAVPSNGLVLNTSKGLVLVDSSWDNKLTKELIEMVEKKFQKRVTDVIITHAHADRIGGITALKERGIKAHSTALTAELAKNSGYEEPLGDLQTITSLKFGNTKVETFYPGKGHTEDNIVVWLPQYQILAGGCLVKSAEAKDLGNVADAYVNEWSTSIENVLKRYGNINSVVPGHGEVGDKGLLLHTLDLLK
B2: in series [2], the “cefotaxime degradation in the intestinal tract” value is on record as “degraded cefotaxime” and the “overall cefotaxime levels in chyme” value was “lower overall levels of cefotaxime in their chyme”. Besides, in series [3], the “ceftriaxone in jejunal chyme” value was “degraded ceftriaxone” and the “effect on serum levels of ceftriaxone” value is recorded as “does not reduce serum levels of ceftriaxone”. For the same molecule, in series [4], the “ampicillin in jejunal chyme” value is “degraded ampicillin” and the “effect on serum levels of ampicillin” value was “does not reduce serum levels of ampicillin”. For the same molecule, in series [5] (induction 18 o/n), the “% Activity Compared to P2A standard” value was 103% and 156%; the “P2A-lactamase Activity” value is 0.21 mg/mL and 0.16 mg/mL. In series [5] (induction 25 on), the “% Activity Compared to P2A standard” value was 148% and 135%; the “P2A-lactamase Activity” value is 0.30 mg/mL and 0.27 mg/mL. Also, in series [5] (induction 37 3 hrs), the “% Activity Compared to P2A standard” value was 131% and 182%; the “P2A-lactamase Activity” value was 0.13 mg/mL and 0.18 mg/mL. In series [6] (chyme 3 (pH 5.6)), the “activity in chyme 3 sample” value is “rapidly declined”. Also, the “stability in pH-adjusted chyme 3” value in series [6] (chyme 3 adjusted to pH 7.0 using NaOH) is recorded as “improved”. Moreover, the “beta-lactamase activity in individual chyme samples” value in series [6] (five individual human chyme samples, 100 uM ZnSO4) is given as “relatively stable in four of five individual chyme samples”. Further, in series [6] (mixed human chyme, no added zinc, 37° C.), the “beta-lactamase activity in mixed chyme without additional zinc” value was “declined more rapidly”.
